# Data published in patent publication US20180258158A1 (Bristol-Myers Squibb, published 2018).
# Read-outs that look alike come from different tables or passages of the source.
# Tests used:
# [1] = molecular target: T1, human serum albumin (HSA), full length (human, UniProt P02768 25-609); assay: SPR off-rate, immobilized HSA, 500 nM Adnectin, 25 C
# T1 construct: mature; Immobilized on CM5 chip (SPR) or coated on plates (ELISA)
# Method: (§1) Measurements were conducted by SPR and ELISA. SPR was conducted as follows. Full length HSA or mouse albumin was immobilized on a Biacore T series CM5 chip at 15 ug/mL in 10 mM acetate buffer (pH 5.0) buffer using standard NHS/EDC coupling, to a surface density of approximately 1000-1100 RU. For off-rate measurements at 25° C., PKE Adnectins were applied as analytes at 500 nM in HBS-P+(0.01 M HEPES pH 7.4, 0.15 M NaCl, 0.005% v/v Surfactant P20) running buffer at a flow rate of 20ul/min for 120 s over the immobilized albumins, followed by 800 s for dissociation. […] Regeneration of the chip surface between cycles was accomplished with two 30 second pulses of 10 mM Glycine, pH 2.0. Kinetic traces of reference-subtracted sensorgrams were fit to a 1:1 binding model for affinity using the Biaevaluation software. Only the dissociation phase was fit for determination of off-rates.
# [2] = molecular target: T2, mouse serum albumin (MSA), full length (mouse, UniProt P07724 25-608); assay: SPR off-rate ratio to parent ADX_7016_A01, MSA, 25 C
# T2 construct: mature; Immobilized on CM5 chip (SPR) or coated on plates (ELISA); also called mouse albumin; murine serum albumin
# Method: as §1
# [3] = molecular target: T2, mouse serum albumin (MSA), full length; assay: SPR off-rate, immobilized MSA, 500 nM Adnectin, 25 C
# Method: as §1
# [4] = molecular target: T1, human serum albumin (HSA), full length; assay: SPR off-rate ratio to parent ADX_7016_A01, HSA, 25 C
# Method: as §1
# [5] = molecular target: T2, mouse serum albumin (MSA), full length; assay: SPR, immobilized MSA, 500 nM Adnectin, 25 C
# Method: as §1
# [6] = molecular target: T1, human serum albumin (HSA), full length; assay: SPR, immobilized HSA, 500 nM Adnectin, 25 C
# Method: as §1
# [7] = molecular target: T1, human serum albumin (HSA), full length; assay: SPR off-rate ratio to parent ADX_7016_A01, HSA, 25 C; remark: listed apart in the source
# Method: as §1
# [8] = molecular target: T2, mouse serum albumin (MSA), full length; assay: direct binding ELISA, coated MSA, anti-His-HRP; set-up: unit not given here
# Method: (§2) Direct binding ELISA assays were conducted as follows. Full length human and murine serum albumin at 10ug/ml in PBS were coated on Nunc Maxisorp plates overnight at 4° C. Plates were blocked in casein/PBS buffer. PKE Adnectins were allowed to bind over a 4-point concentration range of 0.032-4 uM for HSA and 0.008-1 uM for MSA. Bound Adnectin was detected by anti-His antibody conjugated with HRP (horseradish peroxidase) diluted 1:1500 in casein/PBS. Plates were developed with TMB substrate and absorbance read at 450 nm. Adnectins were binned as high, medium and low affinity binders based on the observed Ymax of the concentration response curves.
# [9] = molecular target: T1, human serum albumin (HSA), full length; assay: SPR off-rate, immobilized HSA, 500 nM Adnectin, 25 C; remark: listed apart in the source
# Method: as §1
# [10] = molecular target: T2, mouse serum albumin (MSA), full length; assay: SPR off-rate ratio to parent ADX_7016_A01, MSA, 25 C; remark: listed apart in the source
# Method: as §1
# [11] = molecular target: T1, human serum albumin (HSA), full length; assay: direct binding ELISA, coated HSA, anti-His-HRP; set-up: unit not given here
# Method: as §2
# [12] = molecular target: T2, mouse serum albumin (MSA), full length; assay: SPR off-rate, immobilized MSA, 500 nM Adnectin, 25 C; remark: listed apart in the source
# Method: as §1
# [13] = molecular target: T2, mouse serum albumin (MSA), full length; assay: direct binding ELISA, coated MSA, anti-His-HRP
# Method: as §2
# T1 sequence (P02768 25-609): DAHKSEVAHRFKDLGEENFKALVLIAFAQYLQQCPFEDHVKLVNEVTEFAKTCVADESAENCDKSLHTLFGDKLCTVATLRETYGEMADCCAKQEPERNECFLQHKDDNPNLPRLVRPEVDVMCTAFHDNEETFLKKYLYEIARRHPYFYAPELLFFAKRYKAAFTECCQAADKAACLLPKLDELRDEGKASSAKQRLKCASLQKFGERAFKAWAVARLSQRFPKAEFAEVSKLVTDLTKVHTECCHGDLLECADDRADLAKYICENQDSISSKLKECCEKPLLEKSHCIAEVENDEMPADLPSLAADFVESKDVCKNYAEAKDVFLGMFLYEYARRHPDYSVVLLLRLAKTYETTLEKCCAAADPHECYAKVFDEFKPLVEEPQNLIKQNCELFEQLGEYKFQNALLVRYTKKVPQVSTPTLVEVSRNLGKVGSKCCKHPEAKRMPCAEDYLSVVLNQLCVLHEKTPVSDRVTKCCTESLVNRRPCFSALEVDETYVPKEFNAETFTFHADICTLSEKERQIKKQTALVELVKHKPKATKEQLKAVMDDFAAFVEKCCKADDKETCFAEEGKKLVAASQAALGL
Binder,koff [1],MSA kd/Parent kd [2],koff [3],HSA kd/Parent kd [4],MSA Binding (RU) [5],HSA Binding (RU) [6],HSA kd/Parent kd [7],MSA DB ELISA (OD450) Ymax obs [8],MSA DB ELISA (OD450) Ymin obs [8],koff [9],MSA kd/Parent kd [10],HSA DB ELISA (OD450) Ymax obs [11],HSA DB ELISA (OD450) Ymin obs [11],koff [12],MSA DB ELISA YMIN OBS (OD450) [13]
"ADX_6727_A07 (Y44S/K85T) (designed binder, Full His6-tagged entry) MGVSDVPRDLEVVAATPTSLLISWDAPAVTVRYYRITYGREVQKYSDLGPLYISQEFTVPGSKSTATISGLKPGVDYTITVYAVTGSGESPASSTPISINYRTEIDKPSQHHHHHH",0.00129 s⁻¹,5.2,0.00222 s⁻¹,4.8,56 RU,28 RU,–,–,–,–,–,–,–,–,–
"ADX_6727_B04 (Y35S/K85S) (designed binder, Full His6-tagged entry) MGVSDVPRDLEVVAATPTSLLISWDAPAVTVRYYRITYGREVQKSSDLGPLYIYQEFTVPGSKSTATISGLKPGVDYTITVYAVTGSGESPASSSPISINYRTEIDKPSQHHHHHH",0.0011 s⁻¹,3.3,0.00142 s⁻¹,4.1,62 RU,23 RU,4.1,95,74,0.0011 s⁻¹,3.3,99,62,0.00142 s⁻¹,–
"ADX_6727_F07 (Y44S/K85A) (designed binder, Full His6-tagged entry) MGVSDVPRDLEVVAATPTSLLISWDAPAVTVRYYRITYGREVQKYSDLGPLYISQEFTVPGSKSTATISGLKPGVDYTITVYAVTGSGESPASSAPISINYRTEIDKPSQHHHHHH",0.00176 s⁻¹,6.5,0.00277 s⁻¹,6.5,62 RU,35 RU,–,–,–,–,–,–,–,–,–
"ADX_6727_F10 (Y35A/K85T) (designed binder, Full His6-tagged entry) MGVSDVPRDLEVVAATPTSLLISWDAPAVTVRYYRITYGREVQKASDLGPLYIYQEFTVPGSKSTATISGLKPGVDYTITVYAVTGSGESPASSTPISINYRTEIDKPSQHHHHHH",0.00109 s⁻¹,3.6,0.00156 s⁻¹,4,55 RU,22 RU,–,–,–,–,–,–,–,–,–
"ADX_6727_B09 (L38T/K85T) (designed binder, Full His6-tagged entry) MGVSDVPRDLEVVAATPTSLLISWDAPAVTVRYYRITYGREVQKYSDTGPLYIYQEFTVPGSKSTATISGLKPGVDYTITVYAVTGSGESPASSTPISINYRTEIDKPSQHHHHHH",0.00921 s⁻¹,–,0.0262 s⁻¹,–,–,–,34,27,1,0.00921 s⁻¹,61.2,16,2,0.0262 s⁻¹,1 OD450
"ADX_6727_D03 (L41S) (designed binder, Full His6-tagged entry) MGVSDVPRDLEVVAATPTSLLISWDAPAVTVRYYRITYGREVQKYSDLGPSYIYQEFTVPGSKSTATISGLKPGVDYTITVYAVTGSGESPASSKPISINYRTEIDKPSQHHHHHH",0.00777 s⁻¹,31.3,0.0134 s⁻¹,28.9,43 RU,24 RU,–,–,–,–,–,–,–,–,1 OD450

# The remaining lines, values ahead:
koff [1],MSA kd/Parent kd [2],koff [3],HSA kd/Parent kd [4],MSA Binding (RU) [5],HSA Binding (RU) [6],HSA kd/Parent kd [7],MSA DB ELISA (OD450) Ymax obs [8],MSA DB ELISA (OD450) Ymin obs [8],koff [9],MSA kd/Parent kd [10],HSA DB ELISA (OD450) Ymax obs [11],HSA DB ELISA (OD450) Ymin obs [11],koff [12],MSA DB ELISA YMIN OBS (OD450) [13],Binder
0.000892 s⁻¹,3.2,0.00138 s⁻¹,3.3,63 RU,27 RU,3.3,100,54,0.000892 s⁻¹,3.2,96,54,0.00138 s⁻¹,–,"ADX_6727_G10 (Y35S/K85A) (designed binder, Full His6-tagged entry) MGVSDVPRDLEVVAATPTSLLISWDAPAVTVRYYRITYGREVQKSSDLGPLYIYQEFTVPGSKSTATISGLKPGVDYTITVYAVTGSGESPASSAPISINYRTEIDKPSQHHHHHH"
0.0086 s⁻¹,34,0.0146 s⁻¹,32,35 RU,19 RU,–,–,–,–,–,–,–,–,1 OD450,"ADX_6727_H10 (L41S/K85S) (designed binder, Full His6-tagged entry) MGVSDVPRDLEVVAATPTSLLISWDAPAVTVRYYRITYGREVQKYSDLGPSYIYQEFTVPGSKSTATISGLKPGVDYTITVYAVTGSGESPASSSPISINYRTEIDKPSQHHHHHH"
0.00177 s⁻¹,6,0.00259 s⁻¹,6.6,56 RU,28 RU,–,–,–,–,–,–,–,–,–,"ADX_6727_G04 (Y44S/K85S) (designed binder, Full His6-tagged entry) MGVSDVPRDLEVVAATPTSLLISWDAPAVTVRYYRITYGREVQKYSDLGPLYISQEFTVPGSKSTATISGLKPGVDYTITVYAVTGSGESPASSSPISINYRTEIDKPSQHHHHHH"
0.00105 s⁻¹,3.3,0.00143 s⁻¹,3.9,66 RU,26 RU,–,–,–,–,–,–,–,–,–,"ADX_6727_G06 (Y35A/K85S) (designed binder, Full His6-tagged entry) MGVSDVPRDLEVVAATPTSLLISWDAPAVTVRYYRITYGREVQKASDLGPLYIYQEFTVPGSKSTATISGLKPGVDYTITVYAVTGSGESPASSSPISINYRTEIDKPSQHHHHHH"
0.01 s⁻¹,–,0.0284 s⁻¹,–,–,–,–,–,–,–,–,–,–,–,1 OD450,"ADX_6727_H08 (L38T/K85T) (designed binder, Full His6-tagged entry; Printed with the same substitutions as ADX_6727_B09) MGVSDVPRDLEVVAATPTSLLISWDAPAVTVRYYRITYGREVQKYSDTGPLYIYQEFTVPGSKSTATISGLKPGVDYTITVYAVTGSGESPASSTPISINYRTEIDKPSQHHHHHH"
0.0142 s⁻¹,33.5,0.0143 s⁻¹,52.7,43 RU,24 RU,–,–,–,–,–,–,–,–,1 OD450,"ADX_6727_H06 (Y44Q/K85T) (designed binder, Full His6-tagged entry) MGVSDVPRDLEVVAATPTSLLISWDAPAVTVRYYRITYGREVQKYSDLGPLYIQQEFTVPGSKSTATISGLKPGVDYTITVYAVTGSGESPASSTPISINYRTEIDKPSQHHHHHH"
